Target: the molecule itself
Experiment: AUC; sedimentation velocity, 25 °C, 48,000 rpm, 50 μM protein, pH 2.5 buffer with 0.3 M NaCl, absorbance at 280 nm, SEDFIT

B1: mouse β2-microglobulin (natural protein, UniProt P01887 21-119, looked up)
chain: IQKTPQIQVYSRHPPENGKPNILNCYVTQFHPPHIEIQMLKNGKKIPKVEMSDMSFSKDWSFYILAHTEFTPTETDTYACRVKHASMAEPKTVYWDRDM
notes: β2-microglobulin, mouse; In the AUC the protein was acid-unfolded at pH 2.5; also called mβ2m; source: expressed and prepared as described previously [47]; purified (anion exchange at pH 8.5, gel filtration), lyophilised
binding result: binds

Reference: publication PMC4773402, “Comparison of the aggregation of homologous β2-microglobulin variants reveals protein solubility as a key determinant of amyloid formation” (Journal of Molecular Biology, 2016)
